This note sets out measurements from patent US20090117124A1 (Pfizer, published 2009).

Assay [1] concerns the target T1, cynomolgus monkey IgE (in cynomolgus serum, Harlan Sera-Lab Ltd) (cynomolgus monkey).
T1 construct: Serum was the source of IgE; eight serum samples; also called cynomolgus IgE; Cyno 1 to Cyno 8 serum samples
Put plainly: capture ELISA, Test 1, Cyno 1. How it is done: (§1) Wells were washed once with 150 μL/well wash buffer (0.05% Tween-20, Sigma, Cat. No. P7949/TBS) then blocked with 150 μL/well 1% BSA (Sigma, Cat. No. A7030) in TBS for 2 hours at room temperature. Wells were washed twice with 150 μL wash buffer. 50 μL human (in-house donors) or cynomolgus serum (Harlan Sera-Lab Ltd, Loughborough) was added from neat to at least 1:16 dilution in 1% BSA/0.05% Tween-20/TBS diluent buffer. […] Wells were incubated for 2 hours at 25° C. before washing (3×150 μL wash buffer). […] Wells were incubated for 1 hour at 25° C. then washed (3×150 μL wash buffer). Streptavidin-HRP (Amersham Bioscience, Cat. No. RPN 1231) diluted 1:1000 in diluent buffer was added to all wells and incubated for 45 minutes at room temperature. Wells were washed (3×150 […] wash buffer). 50 μL OPD (Dako, Cat. No. S2045) was added to all wells and the color allowed to develop for 10 minutes before stopping the reaction with 50 μl 0.6M H₂SO₄ and the absorbance measured at 490 nm.

The target in assay [2] is T2, free IgE in human serum (healthy volunteers, in-house donors) (human, UniProt P01854-1 1-428).
T2 construct: Kept apart from the bought myeloma IgE because it is native serum IgE of single donors; also called serum IgE
Put plainly: serum free IgE depletion ELISA; DIN 0623 experiment 1. Here is the method: (§2) The next day ELISA plates were washed 1× with 300 μL/well wash buffer (0.05% Tween-20, Sigma, Cat. No. P7949/TBS) then blocked with 150 μL/well 1% BSA (Sigma, Cat. No. A7030) in TBS for 1 hour at room temperature.
Background: ELISA stands for enzyme-linked immunosorbent assay.

Assay [3] deals with T2, free IgE in human serum (healthy …). Put plainly: serum free IgE depletion ELISA; DIN 0284. How it is done: as §2
The target is the same in assay [4]. Put plainly: serum free IgE depletion ELISA; DIN 0451 experiment 1. How it is done: as §2
In assay [5] the target is T1, cynomolgus monkey IgE (in cynomolgus …). Put plainly: capture ELISA, Test 1, Cyno 7. Here is the method:
as §1

In assay [6] the target is T2, free IgE in human serum (healthy …). Put plainly: capture ELISA, Test 1, human serum. Here is the method:
as §1

The target is the same in assay [7]. Put plainly: serum free IgE depletion ELISA; DIN 0382. How it is done:
as §2

For assay [8], the target named is T1, cynomolgus monkey IgE (in cynomolgus …). Put plainly: capture ELISA, Test 1, Cyno 2. How it is done: as §1
Assay [9] concerns the target T2, free IgE in human serum (healthy …). Put plainly: serum free IgE depletion ELISA; DIN 0748. How it is done: as §2

T2 sequence (P01854 other isoform, or with tags, fused parts or gaps): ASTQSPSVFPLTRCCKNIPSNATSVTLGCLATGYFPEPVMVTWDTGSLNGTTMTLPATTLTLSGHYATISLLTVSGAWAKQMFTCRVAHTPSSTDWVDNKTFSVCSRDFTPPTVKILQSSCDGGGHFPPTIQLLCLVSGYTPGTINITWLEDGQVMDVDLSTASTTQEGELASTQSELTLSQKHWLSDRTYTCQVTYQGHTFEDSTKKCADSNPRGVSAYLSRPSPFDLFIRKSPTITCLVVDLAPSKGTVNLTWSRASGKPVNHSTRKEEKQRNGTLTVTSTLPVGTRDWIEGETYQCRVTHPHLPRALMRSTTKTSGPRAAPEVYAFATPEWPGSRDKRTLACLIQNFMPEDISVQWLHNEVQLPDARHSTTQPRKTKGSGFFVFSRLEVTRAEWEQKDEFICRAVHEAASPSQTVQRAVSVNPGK

B1: 5.948.1 (recombinant) (antibody, human IgG2, kappa, V domains shown)
VH: QVQLVQSGAEVKKPGASVKVSCKASGYTFTSYDINWVRQATGQGLEWMGWMDPNSGNTGYAQKFQGRVTMTRNTSISTAYMELSSLRSEDTAVYYCARGHYDSDGYYSFSGMDVWGQGTTVTVSS
VL: not shown
notes: Human IgG2 kappa; leader omitted; Two batches were tested in some assays; also called recombinant 5.948.1; 5.948.1 - Batch 1 (762.8 µg/mL)
As for B1, the IgE concentration detected was 481 ng/mL in assay [1], 8 ng/mL in [5], 468 ng/mL in assay [6] and 464 ng/mL in assay [8]. Moreover, the “IC25 ng/mL” value in assay [2] worked out at 0.5 µg/mL; in assay [3], 2.45 µg/mL; in assay [4] it was 11.6 µg/mL; in [7], 25 µg/mL; in [9], 25.1 µg/mL.
